In patent publication US20110218157A1:

Tests used:
FcγIIa (R131 allele) = FcγIIa (R131 allele) (UniProt P12318); test: reverse ELISA: PAP-IC without peptide on FcγIIa (R131)-coated plate
FcγIIIa = FcγIIIa (UniProt P08637); test: reverse ELISA: PAP-IC without peptide on FcγIIIa-coated plate
[1] = molecular target: recombinant TNF-α (Sigma-Aldrich); test: reverse ELISA: PAP-IC without peptide on TNF-α-coated plate
FcγIIb = FcγIIb (UniProt P31994); test: reverse ELISA: PAP-IC without peptide on FcγIIb-coated plate

Sequence of recombinant TNF-α (Sigma-Aldrich) (P01375 77-233): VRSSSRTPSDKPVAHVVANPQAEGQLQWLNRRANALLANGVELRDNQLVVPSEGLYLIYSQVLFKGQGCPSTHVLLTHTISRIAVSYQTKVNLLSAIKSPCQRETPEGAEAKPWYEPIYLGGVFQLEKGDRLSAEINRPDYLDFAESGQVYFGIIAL

OD405 (FcγIIa (R131 allele)): 1.6 OD405
OD405 (FcγIIIa): 1.59 OD405
OD405 [1]: 3.18 OD405
OD405 (FcγIIb): 1.39 OD405
Substance: peroxidase-rabbit anti-peroxidase IgG immune complex (PAP complex) (from UniProt P00433 31-338)
